According to patent US6989369B2, “Kunitz domain peptides” (Dyax Corp., priority 2003, dated 2006):
Positions of bridges follow the written chain, without caps; N, C: chain ends. No end group written: not given here.

Assays:
[1] = Clinical testing of DX-88 for hereditary angioedema (HAE); format: in vivo, human; details: treatment of hereditary angioedema, initial data
HNE = target: T1, HNE (Homo sapiens, UniProt P08246); assay: HNE-neutralizing activity expected for doubly fused protein; format: biochemical; details: expected value, protein not tested
T1 sequence (P08246 30-267): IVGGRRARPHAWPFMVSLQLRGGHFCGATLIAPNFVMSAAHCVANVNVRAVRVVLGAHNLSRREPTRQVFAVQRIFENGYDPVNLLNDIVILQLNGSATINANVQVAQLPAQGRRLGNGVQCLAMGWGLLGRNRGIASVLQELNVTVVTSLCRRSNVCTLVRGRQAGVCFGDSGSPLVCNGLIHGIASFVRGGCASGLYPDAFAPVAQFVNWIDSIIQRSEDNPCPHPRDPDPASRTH

[2] = rabbit
Source text: After radiolabeling, the two labeled protein preparations were purified from unbound label by size exclusion chromatography (SEC). Fractions from the SEC column having the highest radioactivity were pooled. The purified, radiolabeled preparations were characterized for specific activity by scintillation counting and for purity by SEC using a Superose-12 column equipped with an in-line radiation detector.
New Zealand White rabbits (ca. 2.5 Kg) were used for clearance measurements, with one animal each used for of the two labeled protein preparations. The radiolabeled preparation was injected into the animal via an ear vein. One blood sample was collected per animal per time point with early time points at approximately 0, 7, 15, 30, and 90 minutes and later time points at 4, 8, 16, 24, 48, 72, 96, 144, 168, and 192 hours. Samples (about 0.5 ml) were collected into anticoagulant (EDTA) tubes. Cells were separated from the plasma/serum fraction by centrifugation. The plasma fraction was divided into two aliquots. One plasma aliquot was stored at −70° C. and the other aliquot was kept at 4° C. for immediate analyses. Sample analyses included radiation counting for clearance rate determinations and SEC chromatography for in vivo stability.

[3] = about 840 mg, 80 open-heart surgery patients; cited from earlier work
[4] = after 8 days of treatment; cited from earlier work

DX-88: Kunitz domain derived from the first Kunitz domain of human LACI, inhibits human plasma kallikrein; SEQ ID No.: 48 (EAMHSFCAFKADDGPCRAAHPRWFFNIFTRQCEEFIYGGCEGNQNRFESLEECKKMCTRD; DX-88 Kunitz domain peptide)
safety and efficacy in the clinic [1]: safe and effective

Dx890-HA-Dx890: albumin fused at both termini to DX-890 via (GGS)4GG linkers; SEQ ID No.: 75
HNE-neutralizing activity relative to DX890 (HNE): ~16%

EACNLPIVRGPCIAFFPRWAFDAVKGKCVLFPYGGCQGNGNKFYSEKECREYCGVP (disulfide 3-53, 12-36, 28-49) [DX-890]
in vivo stability, SEC analysis of plasma [2]: relatively rapid association of label with higher molecular weight plasma components | % α ([2]; in vivo): 75% | % β ([2]; in vivo): 25% | Clearance Times T1/2α ([2]; in vivo): 24 s

bovine pancreatic trypsin inhibitor [BPTI]
decrease of mean amount transfused [3]: 74% | reduction of blood loss [3]: almost half

B1: Pulmozyme: a recombinant human deoxyribonuclease which reduces mucus viscoelasticity by hydrolyzing DNA in sputum (protein, UniProt P24855 23-282, looked up)
Deoxyribonuclease-1: LKIAAFNIQTFGETKMSNATLVSYIVQILSRYDIALVQEVRDSHLTAVGKLLDNLNQDAPDTYHYVVSEPLGRNSYKERYLFVYRPDQVSAVDSYYYDDGCEPCGNDTFNREPAIVRFFSRFTEVREFAIVPLHAAPGDAVAEIDALYDVYLDVQEKWGLEDVMLMGDFNAGCSYVRPSQWSSIRLWTSPTFQWLIPDSADTTATPTHCAYDRIVVAGMLLRGAVVPDSALPFNFQAAYGLSDQLAQAISDHYPVEVMLK
effect on pulmonary function [4]: increase FEV1 and FVC
